Measured values published in the supplement of paper PMC10065799, “High-throughput profiling of sequence recognition by tyrosine kinases and SH2 domains using bacterial peptide display” (eLife, 2023).

Columns and labels:
[1] = target: Grb2 SH2 (UniProt P62993); experiment: SH2 binding enrichment of the phosphorylated peptide, bacterial display (enrichment ratio); higher = better substrate or ligand; peptides without Tyr show the background
[2] = target: c-Src SH2; experiment: as above
[3] = target: SHP2-C SH2; experiment: as above
[4] = target: EPHB2 (UniProt P29323); experiment: phosphorylation enrichment, bacterial display (enrichment ratio); higher = better substrate or ligand; peptides without Tyr show the background
EPHB2, sequence (P29323 whole entry, looked up): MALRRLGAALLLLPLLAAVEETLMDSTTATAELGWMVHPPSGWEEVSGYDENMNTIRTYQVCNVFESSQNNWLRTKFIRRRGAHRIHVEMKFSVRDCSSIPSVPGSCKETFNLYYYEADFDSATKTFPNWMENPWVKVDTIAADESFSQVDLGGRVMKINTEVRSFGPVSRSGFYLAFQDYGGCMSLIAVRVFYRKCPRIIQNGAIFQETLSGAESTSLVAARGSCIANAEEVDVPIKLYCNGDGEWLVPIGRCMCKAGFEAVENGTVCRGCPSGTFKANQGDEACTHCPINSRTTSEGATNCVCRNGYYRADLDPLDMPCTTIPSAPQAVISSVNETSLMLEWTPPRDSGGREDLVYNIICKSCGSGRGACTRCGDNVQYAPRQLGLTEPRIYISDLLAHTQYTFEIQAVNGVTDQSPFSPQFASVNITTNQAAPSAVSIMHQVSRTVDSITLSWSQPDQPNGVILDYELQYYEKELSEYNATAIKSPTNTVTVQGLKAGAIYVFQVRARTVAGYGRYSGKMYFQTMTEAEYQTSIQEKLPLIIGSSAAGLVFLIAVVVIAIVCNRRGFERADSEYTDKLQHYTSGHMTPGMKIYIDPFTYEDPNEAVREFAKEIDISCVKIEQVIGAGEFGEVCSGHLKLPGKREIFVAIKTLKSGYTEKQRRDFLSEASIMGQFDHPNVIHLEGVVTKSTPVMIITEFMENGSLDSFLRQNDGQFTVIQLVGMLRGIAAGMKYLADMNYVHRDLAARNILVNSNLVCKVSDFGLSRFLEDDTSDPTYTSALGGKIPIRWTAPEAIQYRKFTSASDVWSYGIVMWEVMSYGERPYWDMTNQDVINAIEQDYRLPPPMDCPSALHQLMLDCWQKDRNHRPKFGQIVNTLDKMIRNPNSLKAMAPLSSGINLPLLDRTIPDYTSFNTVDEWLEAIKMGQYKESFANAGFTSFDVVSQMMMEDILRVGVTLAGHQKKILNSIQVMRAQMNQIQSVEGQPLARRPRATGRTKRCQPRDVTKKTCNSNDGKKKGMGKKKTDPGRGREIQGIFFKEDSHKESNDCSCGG

[5] = target: EPHB1 (UniProt P54762); experiment: as above
[6] = target: Jak2 (UniProt O60674); experiment: as above
[7] = system: c-Src; experiment: as above
[8] = target: FGFR3 (UniProt P22607); experiment: as above
[9] = system: AncSZ; experiment: as above
[10] = target: Fes (UniProt P07332); experiment: as above
Fes, sequence (P07332 whole entry, looked up): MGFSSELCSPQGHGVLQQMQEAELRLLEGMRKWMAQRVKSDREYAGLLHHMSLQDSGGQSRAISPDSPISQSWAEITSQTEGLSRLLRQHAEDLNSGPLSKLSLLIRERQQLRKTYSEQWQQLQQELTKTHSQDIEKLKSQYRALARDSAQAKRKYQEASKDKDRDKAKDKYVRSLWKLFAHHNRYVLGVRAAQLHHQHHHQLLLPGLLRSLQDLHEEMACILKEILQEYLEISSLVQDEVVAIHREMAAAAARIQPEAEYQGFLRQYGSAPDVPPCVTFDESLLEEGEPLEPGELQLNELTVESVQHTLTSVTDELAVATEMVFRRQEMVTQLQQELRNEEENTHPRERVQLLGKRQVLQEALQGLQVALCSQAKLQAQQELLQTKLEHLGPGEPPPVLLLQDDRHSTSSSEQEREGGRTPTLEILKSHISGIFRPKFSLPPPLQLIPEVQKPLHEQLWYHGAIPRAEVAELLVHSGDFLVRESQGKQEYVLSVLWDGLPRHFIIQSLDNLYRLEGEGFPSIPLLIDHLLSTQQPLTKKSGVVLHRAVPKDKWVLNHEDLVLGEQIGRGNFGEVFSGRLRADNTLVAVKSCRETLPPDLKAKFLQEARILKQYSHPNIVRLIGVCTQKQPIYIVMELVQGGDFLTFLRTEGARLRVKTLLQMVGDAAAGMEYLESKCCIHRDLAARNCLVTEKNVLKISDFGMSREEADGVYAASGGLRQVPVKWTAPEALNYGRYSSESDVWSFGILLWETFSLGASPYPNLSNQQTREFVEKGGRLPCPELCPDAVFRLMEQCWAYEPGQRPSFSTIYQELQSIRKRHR

[11] = target: Fyn (UniProt P06241); experiment: as above
Fyn, sequence (P06241 whole entry, looked up): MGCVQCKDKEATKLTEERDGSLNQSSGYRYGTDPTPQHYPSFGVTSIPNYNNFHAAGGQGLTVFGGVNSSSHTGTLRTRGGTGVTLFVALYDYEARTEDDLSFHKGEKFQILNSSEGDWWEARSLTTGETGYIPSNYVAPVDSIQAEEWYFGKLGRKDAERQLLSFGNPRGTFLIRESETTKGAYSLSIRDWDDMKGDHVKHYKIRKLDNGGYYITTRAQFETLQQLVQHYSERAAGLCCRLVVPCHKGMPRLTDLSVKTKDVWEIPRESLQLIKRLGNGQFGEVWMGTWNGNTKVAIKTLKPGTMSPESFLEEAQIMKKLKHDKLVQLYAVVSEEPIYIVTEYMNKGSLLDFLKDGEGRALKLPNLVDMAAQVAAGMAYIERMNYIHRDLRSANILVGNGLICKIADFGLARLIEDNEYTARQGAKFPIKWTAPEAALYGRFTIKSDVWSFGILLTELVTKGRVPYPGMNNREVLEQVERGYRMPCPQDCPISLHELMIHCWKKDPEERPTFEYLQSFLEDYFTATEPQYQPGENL

[12] = target: FGFR1 (UniProt P11362); experiment: as above
FGFR1, sequence (P11362 whole entry, looked up): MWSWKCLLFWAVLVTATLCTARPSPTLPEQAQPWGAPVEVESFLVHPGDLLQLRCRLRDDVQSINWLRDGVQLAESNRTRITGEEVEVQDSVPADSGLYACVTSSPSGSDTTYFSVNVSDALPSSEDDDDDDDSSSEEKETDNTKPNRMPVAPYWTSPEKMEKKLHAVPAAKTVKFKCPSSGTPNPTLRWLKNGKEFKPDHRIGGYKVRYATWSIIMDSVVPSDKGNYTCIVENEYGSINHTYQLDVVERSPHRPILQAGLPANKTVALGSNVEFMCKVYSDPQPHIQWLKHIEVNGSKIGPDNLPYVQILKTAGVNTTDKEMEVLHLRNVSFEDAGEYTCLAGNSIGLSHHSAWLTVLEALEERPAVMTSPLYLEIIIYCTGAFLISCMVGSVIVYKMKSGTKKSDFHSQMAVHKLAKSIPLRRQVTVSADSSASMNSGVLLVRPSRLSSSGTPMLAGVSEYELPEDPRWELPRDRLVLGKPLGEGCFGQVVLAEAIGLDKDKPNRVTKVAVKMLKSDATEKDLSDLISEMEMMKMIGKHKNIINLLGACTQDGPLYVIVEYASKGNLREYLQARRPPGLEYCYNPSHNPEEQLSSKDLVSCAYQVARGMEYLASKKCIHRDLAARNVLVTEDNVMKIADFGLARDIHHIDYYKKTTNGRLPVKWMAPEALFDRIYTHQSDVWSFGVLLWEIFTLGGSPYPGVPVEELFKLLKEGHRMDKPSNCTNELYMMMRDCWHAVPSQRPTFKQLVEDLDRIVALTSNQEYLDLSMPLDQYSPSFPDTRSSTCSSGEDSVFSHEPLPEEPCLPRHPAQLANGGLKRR

[13] = target: MERTK (UniProt Q12866); experiment: as above
MERTK, sequence (Q12866 whole entry, looked up): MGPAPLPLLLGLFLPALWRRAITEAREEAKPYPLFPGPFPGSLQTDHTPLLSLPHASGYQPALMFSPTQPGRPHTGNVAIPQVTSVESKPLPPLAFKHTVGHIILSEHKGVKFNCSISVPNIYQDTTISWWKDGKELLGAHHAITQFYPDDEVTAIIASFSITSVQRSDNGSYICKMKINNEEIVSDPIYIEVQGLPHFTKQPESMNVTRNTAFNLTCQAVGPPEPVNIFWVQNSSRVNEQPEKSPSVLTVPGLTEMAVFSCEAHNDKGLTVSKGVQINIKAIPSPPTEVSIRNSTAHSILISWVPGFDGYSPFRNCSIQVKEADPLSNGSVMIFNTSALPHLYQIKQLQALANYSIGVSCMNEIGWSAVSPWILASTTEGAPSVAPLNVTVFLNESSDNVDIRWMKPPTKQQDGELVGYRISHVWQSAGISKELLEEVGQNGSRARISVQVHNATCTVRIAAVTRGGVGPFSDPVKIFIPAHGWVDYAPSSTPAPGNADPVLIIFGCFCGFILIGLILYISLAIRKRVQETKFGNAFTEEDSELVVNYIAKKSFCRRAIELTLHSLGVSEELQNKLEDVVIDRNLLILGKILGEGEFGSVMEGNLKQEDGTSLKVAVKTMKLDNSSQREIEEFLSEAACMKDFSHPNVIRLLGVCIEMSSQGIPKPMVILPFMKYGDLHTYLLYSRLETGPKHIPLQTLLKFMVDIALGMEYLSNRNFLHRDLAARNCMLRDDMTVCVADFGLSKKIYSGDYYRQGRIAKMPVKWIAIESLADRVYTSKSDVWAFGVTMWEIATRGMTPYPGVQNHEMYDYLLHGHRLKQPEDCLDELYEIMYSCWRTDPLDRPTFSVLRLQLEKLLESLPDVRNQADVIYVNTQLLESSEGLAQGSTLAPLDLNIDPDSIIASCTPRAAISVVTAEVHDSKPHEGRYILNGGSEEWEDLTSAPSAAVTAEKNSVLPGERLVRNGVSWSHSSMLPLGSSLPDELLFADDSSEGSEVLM

[14] = system: Fer (mouse); experiment: as above
[15] = system: c-Abl (mouse); experiment: as above
[16] = target: Hck (UniProt P08631); experiment: as above
Hck, sequence (P08631 whole entry, looked up, the tested form may be a part): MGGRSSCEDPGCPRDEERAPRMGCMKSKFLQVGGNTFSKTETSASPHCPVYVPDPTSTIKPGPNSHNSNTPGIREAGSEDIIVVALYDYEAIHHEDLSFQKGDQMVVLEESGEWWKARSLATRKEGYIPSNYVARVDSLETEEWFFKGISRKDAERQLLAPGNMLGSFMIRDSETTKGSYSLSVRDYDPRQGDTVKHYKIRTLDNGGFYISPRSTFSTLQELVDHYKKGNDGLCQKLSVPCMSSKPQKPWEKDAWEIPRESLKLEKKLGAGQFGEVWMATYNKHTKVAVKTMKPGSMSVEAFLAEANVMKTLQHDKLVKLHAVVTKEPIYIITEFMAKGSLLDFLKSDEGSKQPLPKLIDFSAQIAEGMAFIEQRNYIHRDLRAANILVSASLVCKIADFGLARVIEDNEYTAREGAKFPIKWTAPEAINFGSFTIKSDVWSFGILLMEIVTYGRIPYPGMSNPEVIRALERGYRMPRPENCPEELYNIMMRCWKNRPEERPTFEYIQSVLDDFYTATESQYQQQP
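For SH2 binding enrichment of the phosphorylated peptide, bacterial display in this document: peptide library displayed on the E. coli surface as eCPX fusions, selected cells deep-sequenced, score is each peptide's frequency after selection divided by its frequency in the input.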
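For phosphorylation enrichment, bacterial display in this document: 11-residue human phosphosite peptides and single-mutation variants displayed on the E. coli surface, counted by deep sequencing, each peptide's frequency after selection divided by its frequency in the unselected input library; frequency after pTyr selection over input frequency; kinase dosed for 20-30% of maximal phosphorylation in three min.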

Sequence	SH2 binding enrichment [1]	SH2 binding enrichment [2]	SH2 binding enrichment [3]	phosphorylation enrichment [4]	phosphorylation enrichment [5]	phosphorylation enrichment [6]	phosphorylation enrichment [7]	phosphorylation enrichment [8]	phosphorylation enrichment [9]	phosphorylation enrichment [10]	phosphorylation enrichment [11]	phosphorylation enrichment [12]	phosphorylation enrichment [13]	phosphorylation enrichment [14]	phosphorylation enrichment [15]	phosphorylation enrichment [16]
EFENSCIFDIN [GAB1_Y83_Y83C]	1.18	0.786	0.732	0.431	0.403	0.824	0.397	0.632	0.958	0.963	0.483	0.45	0.895	0.42	0.673	0.406
VLVSQYEKLNA [AMZ2_Y26]	0.915	2.71	0.632	0.341	0.524	0.638	0.389	0.548	0.619	0.732	0.438	0.362	0.434	0.417	0.578	0.467
IHETTYNSIKK [ACTA1_Y281_M285K]	0.673	1.05	1.63	0.403	0.382	0.532	0.442	0.482	0.449	0.689	0.391	0.467	0.369	0.35	0.455	0.69
PVQAAYKKVVA [HBB_Y131_Q132K]	0.834	0.524	0.613	0.278	0.545	0.486	0.687	0.485	0.645	0.762	0.506	0.534	0.578	0.226	0.73	0.479
SISYDYCRVPM [BST2_Y8_T4I]	1.01	0.831	0.705	9.95	11	3.05	1.17	5.46	3.91	1.17	0.965	7.84	2.98	3.87	1.03	2.62
YPQARYHWLVL [APTX_Y214_K211Q]	1.27	0.98	1.43	0.586	0.72	0.98	0.411	1.48	0.937	1.14	0.449	1.96	1.05	0.612	0.744	0.531
QMRLRYLAAEE [CEP120_Y884]	0.664	0.445	0.982	0.643	0.741	1.3	0.647	0.874	1.11	1.41	0.845	0.931	0.423	0.563	0.916	0.776

More lines, main results first:

SH2 binding enrichment [1]	SH2 binding enrichment [2]	SH2 binding enrichment [3]	Sequence	phosphorylation enrichment [4]	phosphorylation enrichment [5]	phosphorylation enrichment [6]	phosphorylation enrichment [7]	phosphorylation enrichment [8]	phosphorylation enrichment [9]	phosphorylation enrichment [10]	phosphorylation enrichment [11]	phosphorylation enrichment [12]	phosphorylation enrichment [13]	phosphorylation enrichment [14]	phosphorylation enrichment [15]	phosphorylation enrichment [16]
0.865	0.463	0.656	ILGRTYFVNHE [NEDD4_Y627_YF]	0.398	0.526	0.758	0.467	0.605	0.83	0.854	0.392	0.43	0.355	0.429	0.735	0.379
1.02	1.96	1.29	SKGFAYVHFDS [PABPC5_Y149_YF]	0.466	0.477	0.832	0.314	0.584	0.814	0.871	0.381	0.393	0.378	0.408	0.681	0.378
0.843	0.701	0.769	ISSLCYELLEE [TRPC6_Y896_R895C]	0.654	0.986	1.36	0.928	1.23	2.07	1.66	0.597	0.748	0.777	0.924	1.13	0.747
1.05	0.519	0.746	RHPLDYLRQFP [NARS2_Y138_E137D_YF]	0.583	0.458	0.78	0.609	0.449	0.719	0.74	0.511	0.429	0.56	0.349	0.753	0.498
1.6	1.58	1.65	ALKKPYSVLFK [RPF2_Y59_G60S_YF]	0.43	0.411	0.729	0.526	0.617	0.815	0.968	0.419	0.556	0.448	0.502	0.581	0.435
0.844	1.17	0.826	PLQSEYSSIST [ITGB4_Y1760_T1764S]	2.28	1.81	0.822	1.3	0.925	2.59	1.28	1.27	0.944	0.582	1.08	1.49	1.93
0.906	1.44	1.09	RKVLVYDKLNV [ROR2_Y624_N620K]	0.794	1.37	0.548	1.82	0.44	0.875	0.852	1.71	0.49	2	1.25	0.854	10.3
0.753	0.457	0.557	ASPALYRLDLD [TRIL_Y352]	0.596	0.818	0.873	1.84	0.688	0.798	1.16	0.922	0.552	0.484	0.484	0.763	0.617
1.63	1.44	1.39	LLKMMYLMLDN [STAT1_Y203_K201M]	0.693	0.946	0.991	0.611	0.902	1.08	1.51	0.584	0.874	0.597	0.603	1.07	0.644
